Data taken from patent publication US20240342298A1, “METHODS OF TREATING TUMORS BY USING MOLECULAR CONSTRUCT” (Immunwork Inc., priority 2023, published 2024).

What was measured:
U266-CD38- cells = assay: alamarBlue cell viability assay, U266-CD38- cells; assay type: cell-based; settings: 5 days, FIG. 12F
Experimental: (§1) Briefly, H929, U266-CD38^−, MM.1S, and Daudi cells were seeded at 5,000 cells/well in 96-well plates and co-cultured with fresh medium containing different test articles with the indicated concentrations at 37° C. for 5 hours, 1 day, 3 days, or 5 days. The viabilities of the cells were determined by alamarBlue™ cell viability reagent. About 10 μl alamarBlue™ cell viability reagent was added to the cells with a final concentration of 10% v/v, followed by incubating at 37° C. for 1.5 hours. The fluorescence was measured on a microplate reader in arbitrary fluorescent units following excitation at 560 nm and emission at 590 nm.
(§2) H929 cells were incubated for 5 hours, 1 day, 3 days, or 5 days (FIGS. 12A-12D), and MM.1S, U266-CD38-, and Daudi cells were incubated for 5 days (FIGS. 12E-12G). Then, cell viability was determined.

H929 cells = assay: alamarBlue cell viability assay, H929 cells; assay type: cell-based, human; settings: even at doses >20 μM
Experimental: as §1, §2

MM.1S cells = assay: alamarBlue cell viability assay, MM.1S cells; assay type: cell-based, human; settings: even at doses >20 μM
Experimental: as §1, §2

human CD38 = target: T1, human CD38 (Homo sapiens, UniProt P28907); assay: cell-based ELISA binding to human CD38-overexpressing 293T cells
T1 construct: The cDNA of full-length human CD38 was cloned into pCDH-CMV-MCS-Ef1α-Puro expression vector; expressed in transfected cells; host or cells: HEK293T (lentiviral transduction with pCDH-CMV-CD38, puromycin selection)
Experimental: The cDNA of full-length human CD38 was cloned into pCDH-CMV-MCS-Ef1α-Puro expression vector to generate lentiviral-based CD38-expressing plasmid, pCDH-CMV-CD38. Lentivirus was packaged by co-transfecting pCDH-CMV-CD38, pCMV-VSV-G, and pCMV8R8.91 into HEK293T cells. Human CD38-overexpressing HEK293T cells were transduced with lentivirus infection and cultured with 1 μg/mL puromycin three days post-infection.

B1: 2-chain (anti-CD38 scFv)-hIgG1.Fc-(Gly)3-BM fusion protein: dimer of (anti-CD38 scFv)-hIgG1.Fc-(Gly)3-BM, SEQ ID NO: 12; scFv VL and VH derived from daratumumab (protein)
chain: EIVLTQSPATLSLSPGERATLSCRASQSVSSYLAWYQQKPGQAPRLLIYDASNRATGIPARFSGSGSGTDFTLTISSLEPEDFAVYYCQQRSNWPPTFGQGTKVEIKGSTSGSGKPGSGEGSTKGEVQLLESGGGLVQPGGSLRLSCAVSGFTFNSFAMSWVRQAPGKGLEWVSAISGSGGGTYYADSVKGRFTISRDNSKNTLYLQMNSLRAEDTAVYFCAKDKILWFGEPVFDYWGQGTLVTVSSGGGASDKTHTCPPCPAPELLGGPSVFLFPPKPKDTLMISRTPEVTCVVVDVSHEDPEVKFNWYVDGVEVHNAKTKPREEQYNSTYRVVSVLTVLHQDWLNGKDYKCKVSNKALPAPIEKTISKAKGQPREPQVYTLPPSRDELTRNQVSLTCLVKGFYPSDIAVEWESNGQPENNYKTTPPVLDSDGSFFLYSKLTVDKSRWQQGNVFSCSVMHEALHNHYTQKSLSLSPGGGGACPGHA
modifications: homodimer
notes: scFv VL and VH derived from daratumumab
**Q.** For B1, which killing effect (U266-CD38- cells) is on record?
**A.** The killing effect was “did not possess any killing effect”.

**Q.** And the “effect of cell death” value (H929 cells)?
**A.** The value was “no effect of cell death”.

**Q.** And the “effect of cell death” value (MM.1S cells)?
**A.** Its value is “no effect of cell death”.

**Q.** And the EC50 (human CD38)?
**A.** The EC50 was 0.84 nM.
